Experimental data published in patent US20130004429A1.
Ends that are not written are not given here. * marks the point of attachment. Biotin = O=C1N[C@H]2[C@H](CS[C@H]2CCCCC(=O)*)N1

Target: tubulin (rat)
Test: cell-based or functional assay

cells with altered microtubule network (immunocytochemistry), 9L rat glioma cells: 76.7% | cells with altered microtubule network (immunocytochemistry), F98 rat glioma cells: 82% | cells with altered microtubule network (immunocytochemistry), rat neurons: 8.5% | cells with altered microtubule network (immunocytochemistry), rat primary astrocytes: 4.7%
Binder: Biotin-YSSYSAPVSSSLSVRRSYSSSSGS [NFL-TBS40-63 peptide, biotinylated]
